Experimental data published in patent publication US20060292151A1, “L-SIGN polymorphisms and methods involving use of same” (priority 2004, published 2006).

Tested on: HCV pseudovirion entry
Test: HCV pseudovirion entry into target cells
Type: cell-based
Details: E1/E2-mediated entry of pseudovirions
From the text: The procedure of Bartosch et al. (2003b) was used to generate retroviral particles pseudotyped with HCV envelope glycoproteins (HCV pseudovirus particles; HCVpp). Briefly, in order to generate HCV pseudovirions, 293T cells were cotransfected with HIV-1-based (pLenti6, Invitrogen) or MMLV-based (pFB, Stratagene, La Jolla, Calif.) retroviral vectors and vectors expressing structural genes, including Gag, Pol and envelope glycoproteins (see FIG. 2). In addition, the HIV-1-based vector was cotransfected with a Rev-encoding plasmid to enable transport of genomic RNAs from the nucleus to the cytoplasm.
Antibodies against E2 as well as HCV+ sera inhibited E1/E2-mediated entry.

B1: soluble CD81 ECL2 peptide: soluble CD81 ECL2 peptide (peptide)
peptide: FVNKDQIAKDVKQFYDQALQQAVVDDDANNAKAVVKTFHETLDCCGSSTLTALTTSVLKNNLCPSGSNIISNLFKEDCHQKIDDLFSGK
- inhibition of HCV pseudovirion entry: inhibited HCV pseudovirion entry
